Values of other authors in publication PMC4097889.

Tests used:
RXRα LBD (Homo sapiens) [1] = target: RXRα LBD (Homo sapiens) (UniProt P19793); experiment: circular dichroism
RXRα LBD (Homo sapiens) [2] = target: RXRα LBD (Homo sapiens) (UniProt P19793); experiment: ITC

UniProt P19793, sequence (P19793 227-458): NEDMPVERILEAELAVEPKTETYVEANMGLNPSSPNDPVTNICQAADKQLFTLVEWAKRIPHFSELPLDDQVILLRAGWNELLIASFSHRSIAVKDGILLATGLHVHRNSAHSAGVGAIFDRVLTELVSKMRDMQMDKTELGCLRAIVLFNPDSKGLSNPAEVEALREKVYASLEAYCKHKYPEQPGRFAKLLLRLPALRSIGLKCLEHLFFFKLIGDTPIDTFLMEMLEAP

Kd (RXRα LBD (Homo sapiens) [1]): 900 nM
Kd (RXRα LBD (Homo sapiens) [2]): 600 nM
Substance: GRIP-1 peptide (from UniProt Q15596)
